Measured values taken from publication PMC8210318.

Target: replication protein A (RPA) heterotrimer (UniProt P27694)

- free, unbound DNA liberated from pre-bound RPA (12.5 nM)–fork-2 DNA complex in EMSAs on incremental addition of N-HelQ (0–500 nM): 40%
B1: N-HelQ, N-terminal HelQ fragment (amino acids 1-240) (domain or fragment)
chain: MDECGSRIRRRVSLPKRNRPSLGCIFGAPTAAELVPGDEGKEEEEMVAENRRRKTAGVLPVEVQPLLLSDSPECLVLGGGDTNPDLLRHMPTDRGVGDQPNDSEVDMFGDYDSFTENSFIAQVDDLEQKYMQLPEHKKHATDFATENLCSESIKNKLSITTIGNLTELQTDKHTENQSGYEGVTIEPGADLLYDVPSSQAIYFENLQNSSNDLGDHSMKERDWKSSSHNTVNEELPHNCI
